The numbers were not newly measured in paper PMC7300301, which cites them from elsewhere.

Usually Kd stands for the equilibrium constant for the complex coming apart.

The target in this data set is FcRn (Homo sapiens) (UniProt P55899).
FcRn (Homo sapiens), sequence (P55899 24-297, chain 1 of 2): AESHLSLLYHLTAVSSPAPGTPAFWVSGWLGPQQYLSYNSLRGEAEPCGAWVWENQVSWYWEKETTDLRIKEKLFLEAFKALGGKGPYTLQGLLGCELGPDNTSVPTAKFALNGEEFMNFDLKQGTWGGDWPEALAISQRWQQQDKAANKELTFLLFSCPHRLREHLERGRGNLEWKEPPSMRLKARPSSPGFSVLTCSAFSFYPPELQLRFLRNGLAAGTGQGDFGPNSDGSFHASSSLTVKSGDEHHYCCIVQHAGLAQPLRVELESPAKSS
FcRn (Homo sapiens), sequence (partner, as listed by the source, chain 2 of 2): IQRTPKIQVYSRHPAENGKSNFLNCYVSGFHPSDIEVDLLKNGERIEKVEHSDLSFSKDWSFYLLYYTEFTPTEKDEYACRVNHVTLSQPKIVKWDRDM

Take palivizumab: the Kd is 0.75 µM.
